These results are taken from patent publication EP2032607B1.

Test [1] has as its target activated FIX-albumin fusion protein with cleavable linker 1088/797 (human) (UniProt P00740). The test can be described thus: cell-based or functional assay.
The target of test [2] is activated FIX-albumin fusion protein with non-cleavable linker 980/797 (human) (UniProt P00740). The test can be described thus: cell-based or functional assay.

In test [1], “antithrombin III (from UniProt P01008 33-464)” yielded a clotting time (naPTT) after 120 min incubation with AT of 540 s; a clotting time (naPTT), control with AT but without incubation of 210 s; a factor of increase in clotting time (naPTT) after 120 min incubation with AT of 2.57 x. For the same substance, in test [2], the clotting time (naPTT) after 120 min incubation with AT was 411 s and the clotting time (naPTT), control with AT but without incubation is 196 s.
